The record followed here is patent US20220332804A1 (CSL INNOVATION, published 2022).

Holding throughout (test): SPR, KD relative to WT C2;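 note: biacore SPR at 37 °C, anti-C2 mAbs captured via immobilised goat anti-human IgG, C2 alanine or serine surface mutants as analytes, 1:1 model fitted, double-referenced sensograms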
One assay deals with T1, human C2 S278A (human, UniProt P06681 21-752).
T1 sequence: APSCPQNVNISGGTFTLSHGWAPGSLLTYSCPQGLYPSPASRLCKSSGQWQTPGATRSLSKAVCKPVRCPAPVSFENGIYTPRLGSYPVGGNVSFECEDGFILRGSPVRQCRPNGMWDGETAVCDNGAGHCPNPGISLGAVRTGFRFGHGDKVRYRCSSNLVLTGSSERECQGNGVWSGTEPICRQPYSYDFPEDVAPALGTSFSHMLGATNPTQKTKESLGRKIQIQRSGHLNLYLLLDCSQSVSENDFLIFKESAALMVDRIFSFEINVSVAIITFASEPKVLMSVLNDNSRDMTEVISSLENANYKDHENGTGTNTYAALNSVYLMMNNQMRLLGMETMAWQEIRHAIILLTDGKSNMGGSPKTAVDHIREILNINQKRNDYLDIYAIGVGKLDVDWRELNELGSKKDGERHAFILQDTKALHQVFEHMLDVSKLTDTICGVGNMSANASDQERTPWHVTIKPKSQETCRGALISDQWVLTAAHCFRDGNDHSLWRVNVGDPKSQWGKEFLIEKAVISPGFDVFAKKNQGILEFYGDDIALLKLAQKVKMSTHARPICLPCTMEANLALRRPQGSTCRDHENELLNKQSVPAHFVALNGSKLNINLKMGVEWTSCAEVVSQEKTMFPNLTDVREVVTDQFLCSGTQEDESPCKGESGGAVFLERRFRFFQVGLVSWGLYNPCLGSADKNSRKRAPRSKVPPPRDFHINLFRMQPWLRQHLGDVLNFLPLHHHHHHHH

In a further assay the target is T2, human C2 H446A (human, UniProt P06681 21-752).
T2 sequence: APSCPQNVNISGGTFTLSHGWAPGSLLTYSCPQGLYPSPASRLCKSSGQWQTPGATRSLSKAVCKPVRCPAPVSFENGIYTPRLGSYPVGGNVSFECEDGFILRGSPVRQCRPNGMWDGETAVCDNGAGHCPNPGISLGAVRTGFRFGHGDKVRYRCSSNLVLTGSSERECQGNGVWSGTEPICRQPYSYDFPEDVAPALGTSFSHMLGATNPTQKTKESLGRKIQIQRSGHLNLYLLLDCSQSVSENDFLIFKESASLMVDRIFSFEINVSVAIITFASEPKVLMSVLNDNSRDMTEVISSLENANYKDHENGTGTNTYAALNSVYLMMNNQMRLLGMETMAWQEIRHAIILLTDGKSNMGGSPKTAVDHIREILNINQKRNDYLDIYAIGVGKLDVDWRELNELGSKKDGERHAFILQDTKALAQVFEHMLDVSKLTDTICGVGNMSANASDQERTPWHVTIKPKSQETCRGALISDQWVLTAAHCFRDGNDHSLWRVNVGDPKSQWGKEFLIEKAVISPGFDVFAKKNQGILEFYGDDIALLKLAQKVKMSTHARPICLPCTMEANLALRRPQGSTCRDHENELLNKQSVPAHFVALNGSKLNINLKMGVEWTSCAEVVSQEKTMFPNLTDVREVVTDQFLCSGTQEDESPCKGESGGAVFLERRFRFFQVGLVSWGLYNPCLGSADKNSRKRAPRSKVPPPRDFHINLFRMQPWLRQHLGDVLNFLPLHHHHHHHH

A further assay addresses T3, human C2 S473A (human, UniProt P06681 21-752).
T3 sequence: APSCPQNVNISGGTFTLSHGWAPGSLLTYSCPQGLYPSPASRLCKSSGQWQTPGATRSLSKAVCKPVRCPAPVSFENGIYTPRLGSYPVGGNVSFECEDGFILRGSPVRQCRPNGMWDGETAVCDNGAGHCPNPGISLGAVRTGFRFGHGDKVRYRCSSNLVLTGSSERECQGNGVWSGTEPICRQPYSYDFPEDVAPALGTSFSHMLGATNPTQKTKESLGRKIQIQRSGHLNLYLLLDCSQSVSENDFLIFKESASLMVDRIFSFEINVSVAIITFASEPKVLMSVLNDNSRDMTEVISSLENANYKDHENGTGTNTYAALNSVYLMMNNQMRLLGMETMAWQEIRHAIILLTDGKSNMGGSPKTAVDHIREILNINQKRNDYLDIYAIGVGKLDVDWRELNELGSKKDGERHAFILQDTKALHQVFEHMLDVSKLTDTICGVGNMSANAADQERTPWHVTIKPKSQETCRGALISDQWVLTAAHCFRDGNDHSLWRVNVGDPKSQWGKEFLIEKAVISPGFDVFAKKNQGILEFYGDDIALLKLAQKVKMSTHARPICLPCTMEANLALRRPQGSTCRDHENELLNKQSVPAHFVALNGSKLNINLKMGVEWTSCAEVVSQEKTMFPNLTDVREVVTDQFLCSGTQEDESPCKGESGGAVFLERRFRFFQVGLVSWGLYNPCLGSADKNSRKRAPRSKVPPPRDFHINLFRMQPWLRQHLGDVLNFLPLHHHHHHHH

For another assay, the target named is T4, human C2 R434A (human, UniProt P06681 21-752).
T4 sequence: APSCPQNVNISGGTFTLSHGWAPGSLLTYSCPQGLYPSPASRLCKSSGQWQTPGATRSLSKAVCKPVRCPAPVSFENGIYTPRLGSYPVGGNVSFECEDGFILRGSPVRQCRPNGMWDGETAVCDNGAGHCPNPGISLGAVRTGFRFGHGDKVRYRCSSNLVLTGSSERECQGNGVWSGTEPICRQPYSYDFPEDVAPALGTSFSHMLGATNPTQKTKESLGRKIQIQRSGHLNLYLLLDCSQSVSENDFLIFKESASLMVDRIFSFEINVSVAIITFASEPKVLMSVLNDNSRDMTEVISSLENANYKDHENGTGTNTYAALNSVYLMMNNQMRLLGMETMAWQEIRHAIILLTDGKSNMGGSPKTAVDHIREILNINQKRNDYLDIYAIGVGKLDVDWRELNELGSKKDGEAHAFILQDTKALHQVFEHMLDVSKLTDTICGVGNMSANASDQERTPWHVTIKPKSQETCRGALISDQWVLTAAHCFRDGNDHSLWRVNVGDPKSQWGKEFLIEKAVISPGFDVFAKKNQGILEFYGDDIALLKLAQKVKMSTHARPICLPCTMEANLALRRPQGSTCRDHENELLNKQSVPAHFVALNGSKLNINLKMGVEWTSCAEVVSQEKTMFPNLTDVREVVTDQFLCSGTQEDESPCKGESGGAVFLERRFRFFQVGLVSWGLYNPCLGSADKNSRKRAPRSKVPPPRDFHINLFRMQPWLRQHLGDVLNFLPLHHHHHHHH

Method for human C2 H446A: (§1) Surface plasmon resonance (SPR, Biacore) was used for all binding affinity analyses. In brief, goat anti-human IgG was directly immobilised onto the carboxymethyl dextran surface of CM5 sensorchips to approximately 12,000 RU using standard NHS/EDC chemistry at pH 5. The immobilised antibody surface was pre-conditioned with ten injections of polyclonal human IgG (Privigen 60 s) prepared at 1 μg/mL. Ligands (anti-C2 mAbs) were captured at the beginning of each cycle as described below. An adjacent spot or flow cell in which only Polyclonal IgG was capture was used as a reference surface. The goat anti-human IgG Fc antibody surface was regenerate in 100 mM H3PO4, injected for 45 seconds at the end of each cycle. Experiments were performed at 37° C. and the flow rate of each experiment was kept constant at 30 μL/min.
(§2) Sensogram data was double-referenced against a reference anti-IgG surface (i.e. minus anti-C2 mAb) and blank buffer injections obtained within each experiment. The binding data was fit to 1:1 (kinetic or steady-state) model using local Rmax and null refraction index (RI=0) when appropriate. Buffers and solutions were filtered (0.22 μm) prior to use.
Method for human C2 R434A: as §1, §2
Method for human C2 S278A: as §1, §2
Method for human C2 S473A: as §1, §2

B1: RF16-226 (antibody, human IgG4 S228P, lambda)
heavy: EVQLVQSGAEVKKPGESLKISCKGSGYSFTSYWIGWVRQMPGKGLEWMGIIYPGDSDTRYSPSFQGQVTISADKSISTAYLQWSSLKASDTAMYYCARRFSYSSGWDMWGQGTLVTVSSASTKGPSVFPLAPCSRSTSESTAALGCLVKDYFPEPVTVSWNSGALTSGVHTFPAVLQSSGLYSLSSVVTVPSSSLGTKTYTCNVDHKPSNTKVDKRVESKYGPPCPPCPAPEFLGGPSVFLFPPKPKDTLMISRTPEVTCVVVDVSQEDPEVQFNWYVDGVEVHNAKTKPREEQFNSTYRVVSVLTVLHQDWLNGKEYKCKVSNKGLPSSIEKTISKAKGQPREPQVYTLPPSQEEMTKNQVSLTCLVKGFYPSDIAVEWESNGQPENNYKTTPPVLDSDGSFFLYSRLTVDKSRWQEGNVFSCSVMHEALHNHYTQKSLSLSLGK
light: SYELTQPPSVSVSPGQTARITCSGDALTSKYVAWYQQKSGLAPLLVIYEDTRRPSGIPAKFSGSSSGSVATLTISGAHGDDEADYYCYSTDASGHQRVFGGGTKLTVLSQPKAAPSVTLFPPSSEELQANKATLVCLISDFYPGAVTVAWKADGSPVKAGVETTKPSKQSNNKYAASSYLSLTPEQWKSHRSYSCQVTHEGSTVEKTVAPTECS
notes: pH-dependent anti-C2 antibody from a phage display library; also called WT
Regarding B1, the Fold diff was 1 fold with human C2 S278A, 2 fold in the assay with human C2 H446A, 1 fold with human C2 S473A and 14 fold in the assay with human C2 R434A.
